Measured values published in US20230322953A1 (HARBOUR BIOMED SHANGHAI, published 2023).

T1: biotinylated human BCMA-Fc, Avitag recombinant protein (ACRO Biosystems, #BC7-H82F0) (human, UniProt Q02223 1-54, biotinylated)
T1 construct: extracellular domain; Bought protein; also called human BCMA protein; recombinant human BCMA-ECD-Fc; not shown: Fc of the bought fusion protein; Avitag
T1 sequence (looked up): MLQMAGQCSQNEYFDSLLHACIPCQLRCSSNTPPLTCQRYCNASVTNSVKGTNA

T2: human BCMA (human, UniProt Q02223 1-184)
T2 construct: whole, on cells; the cell line is named under assay; also called TNFRSF17; CD269
T2 sequence (looked up): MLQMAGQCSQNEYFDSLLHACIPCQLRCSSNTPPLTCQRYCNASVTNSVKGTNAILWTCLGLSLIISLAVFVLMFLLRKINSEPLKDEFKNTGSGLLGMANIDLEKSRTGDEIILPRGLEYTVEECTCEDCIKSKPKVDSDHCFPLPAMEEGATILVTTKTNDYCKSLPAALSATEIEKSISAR


Legend:
[1] = biological target: T1, biotinylated human BCMA-Fc, Avitag …; assay: BLI (Octet Red96e), biotinylated BCMA-Fc on SA sensor, antibody in solution, 1:1 global fit
Procedure: In this example, the binding kinetics between the anti-BCMA antibody and the BCMA antigenic protein were analyzed by the Biolayer Interferometry (BLI) technique using an Octet Red96e molecular interaction analyzer (ForteBio, Octet Red96e).
When the affinity between the antigen and the antibody (at multiple concentrations) was determined, the rotation speed of sensor was set at 1000 rpm/min. Two columns of SA sensors (8 sensors in each column; with the sensors in the first column referred to as the reference SA sensor and the sensors in the second column referred to as the test SA sensor) were firstly equilibrated in the assay buffer for 10 min. […] Then, the SA sensors were equilibrated in the assay buffer for 2 min. The two columns of SA sensors were then associated with the anti-BCMA antibody diluted in a gradient (e.g., the antibody concentration may be 6 concentrations obtained by a two-fold gradient dilution from 50 nM, and 0 nM) for 5 min, and then dissociated for 10 min.
When data analysis was performed using Octet Data Analysis software (Fortebio, version 11.0), the reference signals were subtracted by a double reference mode; the data were fitted by a “1:1 Global fitting” method, and the kinetic parameters of the binding of the antigen to the antibody were calculated to obtain kon (1/Ms) values, kdis (1/s) values and KD (M) values.

[2] = biological target: T2, human BCMA; assay: flow cytometry, NCI-H929 cells
Procedure: This example is intended to investigate the binding activity of anti-BCMA HCAb antibodies to human and cynomolgus monkey BCMAs. […] Specifically, HEK293T/hBCMA cells and HEK293T/cyno BCMA cells were digested and resuspended in a DMEM complete medium. In addition, NCI-H929 cell suspension was collected. The density of each of the three cells was adjusted to 1×10⁶ cells/mL. […] The cells were incubated at 4° C. for 1 h away from light. Thereafter, the cells in each well were rinsed twice with 100 μL of pre-cooled PBS, and centrifuged at 500 g at 4° C. for 5 min, and then the supernatant was discarded. […] The cells in each well were rinsed twice with 100 μL of pre-cooled PBS, and centrifuged at 500 g at 4° C. for 5 min, and then the supernatant was discarded. Finally, the cells in each well were resuspended in 200 μL of pre-cooled PBS. Fluorescence signal values were read using a BD FACS CANTOII flow cytometer or an ACEA NovoCyte flow cytometer, and the data were processed and analyzed using FlowJo v10 (FlowJo, LLC) software. The data were processed and analyzed by plotting using GraphPad Prism 8 software, and binding curves of the antibodies to target cells, EC₅₀ values and other parameters were obtained through four-parameter nonlinear fitting.

[3] = biological target: T3, human CD3 (TCR/CD3 complex) on human T cells (human, UniProt P07766 23-207); assay: flow cytometry (FACS) on human T cells, Experiment 1
T3 construct: whole, on cells
T3 sequence (P07766 23-207, one chain of several): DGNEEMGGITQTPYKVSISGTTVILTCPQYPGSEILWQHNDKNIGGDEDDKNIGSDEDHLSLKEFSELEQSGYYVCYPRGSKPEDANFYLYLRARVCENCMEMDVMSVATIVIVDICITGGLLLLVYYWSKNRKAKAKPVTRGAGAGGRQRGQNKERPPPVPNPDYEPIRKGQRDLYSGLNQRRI
Procedure: The binding ability of the antibody molecules to human or cynomolgus monkey T cells was tested by flow cytometry FACS. […] The T cell density was adjusted to 1×10⁶ cells/mL. […] The cells were incubated at 4° C. for 1 h away from light. Then, the cells in each well were rinsed twice with 100 μL of pre-cooled PBS, and centrifuged at 500 g at 4° C. for 5 min, and then the supernatant was discarded. […] The cells in each well were rinsed twice with 100 μL of pre-cooled PBS, and centrifuged at 500 g at 4° C. for 5 min, and then the supernatant was discarded. Finally, the cells in each well were resuspended in 200 μL of pre-cooled PBS. Fluorescence signal values were read using a BD FACS CANTOII flow cytometer or an ACEA NovoCyte flow cytometer, and the data were processed and analyzed using FlowJo v10 (FlowJo, LLC) software. The data were processed and analyzed by plotting using GraphPad Prism 8 software, and binding curves of the antibodies to target cells, EC₅₀ values and other parameters were obtained through four-parameter nonlinear fitting.

Binder | Maximum MFI [3] | also measured
PR000940, anti-BCMA HCAb antibody, clone 1005P10H8 (antibody, human IgG1, V domains shown, Heavy-chain-only antibody (HCAb), human IgG1 Fc, no light chain) VH: EVQLLESGGGLVQPGGSLRLSCAASGFTFSSYAMIWVRQAPGKGLEWVSGISESGGSTYYADSVKGRFTISRDNSKNTLYLQMNSLRAEDTAVYFCVKDLDDILTGYYKDYWGQGTLVTVSS |  | Kd [1]: 0.152 nM; koff [1]: 6.09e-05 s⁻¹; kon [1]: 401000 M⁻¹ s⁻¹; EC50 [2]: 1.85 nM; Maximum MFI [2]: 91000
PR001988 (bispecific antibody, human IgG1, lambda, L234A L235A, Structure 11 (Fab-Fc-VH): CD3 Fab from PR000511, BCMA VH from PR000943; human IgG1 knob/hole, AAG) light: QAVVTQEPSLTVSPGGTVTLTCRSSTGAVTTSNYANWVQQKPGQAPRGLIGGTNKRAPWTPARFSGSLLGDKAALTLLGAQPEDEAEYFCALWYSNLWVFGGGTKLTVLGQPKAAPSVTLFPPSSEELQANKATLVCLISDFYPGAVTVAWKADSSPVKAGVETTTPSKQSNNKYAASSYLSLTPEQWKSHRSYSCQVTHEGSTVEKTVAPTECS heavy: EVQLLESGGGLVQPGGSLRLSCAASGFTFNTYAMNWVRQAPGKGLEWVSRIRSKYNNYATYYADSVKDRFTISRDDSKSTLYLQMNSLRAEDTAVYYCVRHGNFGNSYVSWFAYWGQGTLVTVSSASTKGPSVFPLAPSSKSTSGGTAALGCLVKDYFPEPVTVSWNSGALTSGVHTFPAVLQSSGLYSLSSVVTVPSSSLGTQTYICNVNHKPSNTKVDKKVEPKSCDKTHTCPPCPAPEAAGGPSVFLFPPKPKDTLMISRTPEVTCVVVDVSHEDPEVKFNWYVDGVEVHNAKTKPREEQYNSTYRVVSVLTVLHQDWLNGKEYKCKVSNKALGAPIEKTISKAKGQPREPQVYTLPPCREEMTKNQVSLWCLVKGFYPSDIAVEWESNGQPENNYKTTPPVLDSDGSFFLYSKLTVDKSRWQQGNVFSCSVMHEALHNHYTQKSLSLSPGK EVQLVETGGGLIQPGGSLRLSCAASGFPVSSNYMSWVRQAPGKGLEWVSVIFSGGRTYYADSVKGRFTISRDNSKNTLYLQMNSLRAEDTAVYYCARRNWIDGRDAFDIWGQGTMVTVSSASEPKSSDKTHTCPPCPAPEAAGGPSVFLFPPKPKDTLMISRTPEVTCVVVDVSHEDPEVKFNWYVDGVEVHNAKTKPREEQYNSTYRVVSVLTVLHQDWLNGKEYKCKVSNKALGAPIEKTISKAKGQPREPQVCTLPPSREEMTKNQVSLSCAVKGFYPSDIAVEWESNGQPENNYKTTPPVLDSDGSFFLVSKLTVDKSRWQQGNVFSCSVMHEALHNHYTQKSLSLSPGK | 5800 MFI | 
PR001989 (bispecific antibody, human IgG1, lambda, L234A L235A, Structure 11 (Fab-Fc-VH): CD3 Fab from PR000511, BCMA VH from PR001035; human IgG1 knob/hole, AAG) light: QAVVTQEPSLTVSPGGTVTLTCRSSTGAVTTSNYANWVQQKPGQAPRGLIGGTNKRAPWTPARFSGSLLGDKAALTLLGAQPEDEAEYFCALWYSNLWVFGGGTKLTVLGQPKAAPSVTLFPPSSEELQANKATLVCLISDFYPGAVTVAWKADSSPVKAGVETTTPSKQSNNKYAASSYLSLTPEQWKSHRSYSCQVTHEGSTVEKTVAPTECS heavy: EVQLLESGGGLVQPGGSLRLSCAASGFTFNTYAMNWVRQAPGKGLEWVSRIRSKYNNYATYYADSVKDRFTISRDDSKSTLYLQMNSLRAEDTAVYYCVRHGNFGNSYVSWFAYWGQGTLVTVSSASTKGPSVFPLAPSSKSTSGGTAALGCLVKDYFPEPVTVSWNSGALTSGVHTFPAVLQSSGLYSLSSVVTVPSSSLGTQTYICNVNHKPSNTKVDKKVEPKSCDKTHTCPPCPAPEAAGGPSVFLFPPKPKDTLMISRTPEVTCVVVDVSHEDPEVKFNWYVDGVEVHNAKTKPREEQYNSTYRVVSVLTVLHQDWLNGKEYKCKVSNKALGAPIEKTISKAKGQPREPQVYTLPPCREEMTKNQVSLWCLVKGFYPSDIAVEWESNGQPENNYKTTPPVLDSDGSFFLYSKLTVDKSRWQQGNVFSCSVMHEALHNHYTQKSLSLSPGK EVQLVETGGGLIQPGGSLRLSCAASGFTVSSNYMTWVRQAPGKGLEWVSVIFSGGSTYYADSVKGRFTISRDNSKNTLYLQMNSLRAEDTAVYYCARRIAVAGHDVFDIWGQGTMVTVSSASEPKSSDKTHTCPPCPAPEAAGGPSVFLFPPKPKDTLMISRTPEVTCVVVDVSHEDPEVKFNWYVDGVEVHNAKTKPREEQYNSTYRVVSVLTVLHQDWLNGKEYKCKVSNKALGAPIEKTISKAKGQPREPQVCTLPPSREEMTKNQVSLSCAVKGFYPSDIAVEWESNGQPENNYKTTPPVLDSDGSFFLVSKLTVDKSRWQQGNVFSCSVMHEALHNHYTQKSLSLSPGK | 6680 MFI | 

The next lines start with results.

Maximum MFI [3] | Binder | also measured
5160 MFI | PR001987 (bispecific antibody, human IgG1, lambda, L234A L235A, Structure 11 (Fab-Fc-VH): CD3 Fab from PR000511, BCMA VH from PR000940; human IgG1 knob/hole, AAG; also called BCMA×CD3 bispecific antibody molecule of Fab-Fc-VH asymmetric structure) light: QAVVTQEPSLTVSPGGTVTLTCRSSTGAVTTSNYANWVQQKPGQAPRGLIGGTNKRAPWTPARFSGSLLGDKAALTLLGAQPEDEAEYFCALWYSNLWVFGGGTKLTVLGQPKAAPSVTLFPPSSEELQANKATLVCLISDFYPGAVTVAWKADSSPVKAGVETTTPSKQSNNKYAASSYLSLTPEQWKSHRSYSCQVTHEGSTVEKTVAPTECS heavy: EVQLLESGGGLVQPGGSLRLSCAASGFTFNTYAMNWVRQAPGKGLEWVSRIRSKYNNYATYYADSVKDRFTISRDDSKSTLYLQMNSLRAEDTAVYYCVRHGNFGNSYVSWFAYWGQGTLVTVSSASTKGPSVFPLAPSSKSTSGGTAALGCLVKDYFPEPVTVSWNSGALTSGVHTFPAVLQSSGLYSLSSVVTVPSSSLGTQTYICNVNHKPSNTKVDKKVEPKSCDKTHTCPPCPAPEAAGGPSVFLFPPKPKDTLMISRTPEVTCVVVDVSHEDPEVKFNWYVDGVEVHNAKTKPREEQYNSTYRVVSVLTVLHQDWLNGKEYKCKVSNKALGAPIEKTISKAKGQPREPQVYTLPPCREEMTKNQVSLWCLVKGFYPSDIAVEWESNGQPENNYKTTPPVLDSDGSFFLYSKLTVDKSRWQQGNVFSCSVMHEALHNHYTQKSLSLSPGK EVQLLESGGGLVQPGGSLRLSCAASGFTFSSYAMIWVRQAPGKGLEWVSGISESGGSTYYADSVKGRFTISRDNSKNTLYLQMNSLRAEDTAVYFCVKDLDDILTGYYKDYWGQGTLVTVSSASEPKSSDKTHTCPPCPAPEAAGGPSVFLFPPKPKDTLMISRTPEVTCVVVDVSHEDPEVKFNWYVDGVEVHNAKTKPREEQYNSTYRVVSVLTVLHQDWLNGKEYKCKVSNKALGAPIEKTISKAKGQPREPQVCTLPPSREEMTKNQVSLSCAVKGFYPSDIAVEWESNGQPENNYKTTPPVLDSDGSFFLVSKLTVDKSRWQQGNVFSCSVMHEALHNHYTQKSLSLSPGK | 
3240 MFI | PR001991 (bispecific antibody, human IgG1, kappa, L234A L235A, CD3 Fab from PR000511, BCMA VH from PR000940; IgG1 knob/hole, AAG) chain 1: EVQLLESGGGLVQPGGSLRLSCAASGFTFNTYAMNWVRQAPGKGLEWVSRIRSKYNNYATYYADSVKDRFTISRDDSKSTLYLQMNSLRAEDTAVYYCVRHGNFGNSYVSWFAYWGQGTLVTVSSRTVAAPSVFIFPPSDEQLKSGTASVVCLLNNFYPREAKVQWKVDNALQSGNSQESVTEQDSKDSTYSLSSTLTLSKADYEKHKVYACEVTHQGLSSPVTKSFNRGEC chain 2: QAVVTQEPSLTVSPGGTVTLTCRSSTGAVTTSNYANWVQQKPGQAPRGLIGGTNKRAPWTPARFSGSLLGDKAALTLLGAQPEDEAEYFCALWYSNLWVFGGGTKLTVLSSASTKGPSVFPLAPSSKSTSGGTAALGCLVKDYFPEPVTVSWNSGALTSGVHTFPAVLQSSGLYSLSSVVTVPSSSLGTQTYICNVNHKPSNTKVDKKVEPKSCDKTHTCPPCPAPEAAGGPSVFLFPPKPKDTLMISRTPEVTCVVVDVSHEDPEVKFNWYVDGVEVHNAKTKPREEQYNSTYRVVSVLTVLHQDWLNGKEYKCKVSNKALGAPIEKTISKAKGQPREPQVYTLPPCREEMTKNQVSLWCLVKGFYPSDIAVEWESNGQPENNYKTTPPVLDSDGSFFLYSKLTVDKSRWQQGNVFSCSVMHEALHNHYTQKSLSLSPGK chain 3: EVQLLESGGGLVQPGGSLRLSCAASGFTFSSYAMIWVRQAPGKGLEWVSGISESGGSTYYADSVKGRFTISRDNSKNTLYLQMNSLRAEDTAVYFCVKDLDDILTGYYKDYWGQGTLVTVSSASEPKSSDKTHTCPPCPAPEAAGGPSVFLFPPKPKDTLMISRTPEVTCVVVDVSHEDPEVKFNWYVDGVEVHNAKTKPREEQYNSTYRVVSVLTVLHQDWLNGKEYKCKVSNKALGAPIEKTISKAKGQPREPQVCTLPPSREEMTKNQVSLSCAVKGFYPSDIAVEWESNGQPENNYKTTPPVLDSDGSFFLVSKLTVDKSRWQQGNVFSCSVMHEALHNHYTQKSLSLSPGK | 
2240 MFI | PR001992 (bispecific antibody, human IgG1, kappa, L234A L235A, Structure 12 (Fab(cross VH/VL)-Fc-VH): CD3 Fab from PR000511, BCMA VH from PR000943; IgG1 knob/hole, AAG) chain 1: EVQLLESGGGLVQPGGSLRLSCAASGFTFNTYAMNWVRQAPGKGLEWVSRIRSKYNNYATYYADSVKDRFTISRDDSKSTLYLQMNSLRAEDTAVYYCVRHGNFGNSYVSWFAYWGQGTLVTVSSRTVAAPSVFIFPPSDEQLKSGTASVVCLLNNFYPREAKVQWKVDNALQSGNSQESVTEQDSKDSTYSLSSTLTLSKADYEKHKVYACEVTHQGLSSPVTKSFNRGEC chain 2: QAVVTQEPSLTVSPGGTVTLTCRSSTGAVTTSNYANWVQQKPGQAPRGLIGGTNKRAPWTPARFSGSLLGDKAALTLLGAQPEDEAEYFCALWYSNLWVFGGGTKLTVLSSASTKGPSVFPLAPSSKSTSGGTAALGCLVKDYFPEPVTVSWNSGALTSGVHTFPAVLQSSGLYSLSSVVTVPSSSLGTQTYICNVNHKPSNTKVDKKVEPKSCDKTHTCPPCPAPEAAGGPSVFLFPPKPKDTLMISRTPEVTCVVVDVSHEDPEVKFNWYVDGVEVHNAKTKPREEQYNSTYRVVSVLTVLHQDWLNGKEYKCKVSNKALGAPIEKTISKAKGQPREPQVYTLPPCREEMTKNQVSLWCLVKGFYPSDIAVEWESNGQPENNYKTTPPVLDSDGSFFLYSKLTVDKSRWQQGNVFSCSVMHEALHNHYTQKSLSLSPGK chain 3: EVQLVETGGGLIQPGGSLRLSCAASGFPVSSNYMSWVRQAPGKGLEWVSVIFSGGRTYYADSVKGRFTISRDNSKNTLYLQMNSLRAEDTAVYYCARRNWIDGRDAFDIWGQGTMVTVSSASEPKSSDKTHTCPPCPAPEAAGGPSVFLFPPKPKDTLMISRTPEVTCVVVDVSHEDPEVKFNWYVDGVEVHNAKTKPREEQYNSTYRVVSVLTVLHQDWLNGKEYKCKVSNKALGAPIEKTISKAKGQPREPQVCTLPPSREEMTKNQVSLSCAVKGFYPSDIAVEWESNGQPENNYKTTPPVLDSDGSFFLVSKLTVDKSRWQQGNVFSCSVMHEALHNHYTQKSLSLSPGK | 
